Data from the Human Domainome abundance scans (Beltran et al. 2025).

B1: Tumor protein 63, residues 545 to 610; numbered along this chain, Q9H3D4 (parent)
chain: TDCSIVSFLARLGCSSCLDYFTTQGLTTIYQIEHYSMDDLASLKIPEQFRHAIWKGILDHRQLHEF

Variants of: B1
Experiment: abundance fitness (aPCA) (normalised: wild type 0, dead -1); higher = more abundant; growth selection in yeast, the domain comes from the species named
Details: Homo sapiens

Abundance fitness: each site, then its substitutions
L9: D -0.474, N -0.814, G -0.622, W -0.955, A -1, S -0.869, I -0.421, P -0.928, T -1.04, Q -1.03, C -0.344, M -0.272, Y -0.783, H -1.02, K -1, R -0.83, E -0.666, F -0.626
Y20: D -0.175, I -0.002, M -0.02, R -0.043, L -0.044, Q -0.09, V -0.109, E -0.139, G -0.268, P -0.387, A -0.028, N -0.022, W -0.097, K -0.02, C -0.08
S16: G -0.023, H -0.059, D -0.012, T -0.073, C 0.016, F -0.106, A -0.037, K -0.12, W -0.165, R -0.092, E -0.033, Y -0.156, I -0.089, P -0.006
C14: K -0.125, P -0.889, W -0.61, N -0.34, I -0.068, E -0.42, H -0.12, T -0.143, V -0.027, R -0.222, F -0.111, S -0.128, L 0.023, M -0.014, Y -0.076
T23: C -0.037, K -0.008, I -0.072, Q 0, Y -0.096, P -0.093, S -0.037, D -0.027, W -0.105, L -0.03, R -0.02, A -0.023, G -0.004, H 0.076, V -0.044, E -0.02, N 0.002, M -0.01
S15: L -0.061, K -0.037, D -0.064, C -0.057, R -0.052, E -0.067, P -0.086, H -0.031, T 0, W -0.179, M -0.076, I -0.042, A -0.046, Y -0.096, V -0.077, N -0.034, G -0.059, F -0.157, Q 0.008
L12: P -0.726, N -0.107, G -0.648, Y -0.048, F -0.149, A -0.068, C -0.087, R -0.112, W -0.072, H -0.099, E -0.285, K -0.146, M -0.05, T -0.06, Q -0.074, D -0.836, I 0.021, V -0.047, S -0.119
S7: R -0.086, G -0.045, K -0.028, E -0.024, Y -0.053, T -0.012, L -0.137, F -0.082, P -0.113, M -0.108, C -0.026, D -0.056, H -0.069, Q -0.067, W -0.132, N -0.006, I -0.234
A10: D -0.145, V -0.15, E -0.003, S -0.104, I -0.203, N -0.146, L -0.063, G -0.1, Q -0.15, H -0.16, K -0.092, F -0.167, C -0.214, Y -0.164, W -0.18, T -0.134
L18: N -0.047, R -0.072, E -0.014, P -0.551, G -0.08, H -0.126, K 0.061, F -0.16, Y -0.047, D -0.09, V -0.013, I -0.036, A -0.008, S -0.018, M -0.008, W -0.203, T -0.008, C 0.007, Q -0.002
G25: M -0.362, E -0.067, A -0.118, P -0.885, R -0.093, T -0.401, S -0.062, H -0.099, C -0.143, N -0.048, F -0.549, I -1, L -0.582, V -0.866, Q -0.116
D19: E -0.015, M -0.086, V -0.081, Q -0.087, T -0.002, A -0.05, R -0.019, Y -0.103, P 0.004, I -0.067, F -0.09, L -0.089, K -0.024, N 0.004, G -0.032, C -0.079, W -0.058
T22: L -0.021, Q -0.026, E -0.014, Y -0.177, V -0.036, I -0.027, H -0.04, F -0.102, W -0.096, K -0.017, C -0.166, P -0.78, A -0.023, M -0.098, G -0.1, D -0.039, N -0.066
R11: P -0.133, K -0.02, M -0.111, Y -0.221, T -0.023, I -0.126, F -0.268, E -0.038, D -0.09, N -0.093, G -0.071, Q -0.08, C -0.155, V -0.171, H -0.127
F21: S -0.773, H -0.975, W -1.04, V -1, K -1.15, R -0.964, G -0.986, I -0.737, N -0.962, D -1.03, C -1.01, Q -0.965, L -0.56, Y -0.85, T -1.13, A -1.02, E -0.983
Q24: E -0.039, D -0.152, G -0.081, Y -0.121, V -0.04, H -0.015, L -0.081, F -0.12, I -0.073, T -0.062, N -0.089, K -0.018, R -0.023, W -0.138, C -0.048, S -0.037, A -0.025, M -0.067, P -0.21
G13: P -0.935, I -0.814, Q -0.04, S -0.076, N -0.013, D 0.004, V -0.804, T -0.188, W -0.829, L -0.438, M -0.178, F -0.45, R -0.077, A -0.117, Y -0.298, E -0.071, H -0.174
C17: P -0.784, D -1.05, M -0.025, G -0.584, Y -0.323, I -0.124, K -0.619, F -0.299, S -0.164, Q -0.147, L -0.085, T -0.087, V -0.077, E -0.377, R -0.838, N -0.359, H -0.525
V6: P -0.077, K 0.009, N -0.031, M -0.017, Y -0.11, G -0.032, I -0.034, F -0.06, T 0.016, W -0.073, S 0.003, L -0.007, R -0.012
F8: A -0.58, N -0.796, Y -0.329, W -0.024, I -0.272, G -1.01, K -0.961, T -0.592, H -0.41, M -0.029, L -0.052, S -0.822, Q -0.835, E -0.711, P -0.938, R -0.918, C -0.583
